Patent US20110262366A1
Starred links: 1 amine or outer side, 2 acyl side, 3 side chain; linkers in the order of their positions; H or OH if unused. Positions of bridges follow the written chain, without caps; N, C: chain ends. Primed or numbered codes have the meaning given here. No end group written: not given here. DPPE′ = dipalmitoylphosphatidylethanolamine; Glutaryl = O=C(CCCC(=O)[*:2])[*:1]

Columns and labels:
[1] = target: endothelial cell receptor on HAEC (human aortic endothelial cells); assay: competition, 50 µM BRU-306 against 2% BRU-114 microbubbles (competitor) on HAEC, static
[2] = target: endothelial cell receptor on HAEC (human aortic endothelial cells); assay: competition, 100 µM BRU-306 against 2% BRU-114 microbubbles (competitor) on HAEC, static
[3] = target: endothelial cell receptor on HAEC (human aortic endothelial cells); assay: competition, 200 µM BRU-306 against 2% BRU-114 microbubbles (competitor) on HAEC, static
[4] = target: endothelial cell receptor on HAEC (human aortic endothelial cells); assay: conjugated fluorescent beads on confluent HAEC, static 30 min, image analysis (Example 2, experiment 1)
[5] = target: endothelial cell receptor on HAEC (human aortic endothelial cells); assay: competition, 50 µM BRU-305 against 2% BRU-114 microbubbles (competitor) on HAEC, static
[6] = target: endothelial cell receptor on HAEC (human aortic endothelial cells); assay: competition, 100 µM BRU-305 against 2% BRU-114 microbubbles (competitor) on HAEC, static
[7] = target: endothelial cell receptor on HAEC (human aortic endothelial cells); assay: competition, 200 µM BRU-305 against 2% BRU-114 microbubbles (competitor) on HAEC, static
[8] = target: endothelial cell receptor on HAEC (human aortic endothelial cells); assay: TKPPR-beads perfused over HAEC in a parallel plate flow cell, 1.53 dynes/cm^2
[9] = target: endothelial cell receptor on HAEC (human aortic endothelial cells); assay: microbubbles with 5% DPPE-GTKPPR on HAEC, static
[10] = target: KB cells (human epidermoid carcinoma cell line); assay: microbubbles with 5% DPPE-GTKPPR on KB cells, static
[11] = target: endothelial cell receptor on HAEC (human aortic endothelial cells); assay: microbubbles with 1% BRU-114 on HAEC, static, no competitor
[12] = target: endothelial cell receptor on HAEC (human aortic endothelial cells); assay: microbubbles with 5% BRU-114 on HAEC, static, no competitor
[13] = target: endothelial cell receptor on HAEC (human aortic endothelial cells); assay: microbubbles with 10% BRU-114 on HAEC, static, no competitor
[14] = target: endothelial cell receptor on HAEC (human aortic endothelial cells); assay: microbubbles with 5% DPPE-GTKPPR on HAEC, static, after washing
[15] = target: endothelial cell receptor on HAEC (human aortic endothelial cells); assay: microbubbles with 5% DPPE-GTKPPR on HAEC, static, no competitor
[16] = target: endothelial cell receptor on RAEC (rabbit aortic endothelial cells); assay: microbubbles with 5% DPPE-GTKPPR on RAEC, static, no competitor
[17] = target: endothelial cell receptor on HAEC (human aortic endothelial cells); assay: microbubbles with 1% DPPE-GTKPPR on HAEC, static, no competition
[18] = target: endothelial cell receptor on HAEC (human aortic endothelial cells); assay: microbubbles with 5% DPPE-GTKPPR on HAEC, static, no competition
[19] = target: endothelial cell receptor on HAEC (human aortic endothelial cells); assay: microbubbles with 5% DPPE-GTKPPR on HAEC, static, no competitor (control)
[20] = target: endothelial cell receptor on HAEC (human aortic endothelial cells); assay: microbubbles on HAEC, static, manual counting, 5% against 1% DPPE-GTKPPR
[21] = target: endothelial cell receptor on HAEC (human aortic endothelial cells); assay: microbubbles with 2% BRU-114 on HAEC, static, no competitor (control set to 100)
[22] = target: endothelial cell receptor on HAEC (human aortic endothelial cells); assay: microbubbles with 1% BRU-114 on HAEC, static, no competitor, average of duplicates
[23] = target: endothelial cell receptor on HAEC (human aortic endothelial cells); assay: microbubbles with 2% BRU-114 on HAEC, static, no competitor, average of duplicates
[24] = target: endothelial cell receptor on HAEC (human aortic endothelial cells); assay: microbubbles with 5% DPPE-GTKPPR on HAEC, static; cells treated with 0 ng/mL TNFα for 4 h
[25] = target: endothelial cell receptor on HAEC (human aortic endothelial cells); assay: microbubbles with 5% DPPE-GTKPPR on HAEC, static; cells treated with 1 ng/mL TNFα for 4 h
[26] = target: endothelial cell receptor on HAEC (human aortic endothelial cells); assay: microbubbles with 5% DPPE-GTKPPR on HAEC, static; cells treated with 5 ng/mL TNFα for 4 h
[27] = target: endothelial cell receptor on HAEC (human aortic endothelial cells); assay: microbubbles with 5% DPPE-GTKPPR on HAEC, static; cells treated with 10 ng/mL TNFα for 4 h
[28] = target: endothelial cell receptor on HAEC (human aortic endothelial cells); assay: microbubbles with 5% DPPE-GTKPPR on HAEC, static, no competitor (same control as in the 16th table)
[29] = target: VEGF receptors on HUVECs; assay: competition with ^125I-VEGF on HUVECs
[30] = target: NP-1/Fc (Neuropilin-1/Fc, R&D Systems); assay: competition with 250 pM ^125I-VEGF165 on NP-1/Fc-coated plates, 4° C., 2 h
[31] = target: endothelial cell receptor on HAEC (human aortic endothelial cells); assay: competition, 5 µM tuftsin against 1% BRU-114 microbubbles (competitor) on HAEC, static
[32] = target: endothelial cell receptor on HAEC (human aortic endothelial cells); assay: competition, 10 µM tuftsin against 1% BRU-114 microbubbles (competitor) on HAEC, static
[33] = target: endothelial cell receptor on HAEC (human aortic endothelial cells); assay: competition, 25 µM tuftsin against 1% BRU-114 microbubbles (competitor) on HAEC, static
[34] = target: endothelial cell receptor on HAEC (human aortic endothelial cells); assay: competition, 50 µM tuftsin against 1% BRU-114 microbubbles (competitor) on HAEC, static
[35] = target: endothelial cell receptor on HAEC (human aortic endothelial cells); assay: competition, 100 µM tuftsin against 1% BRU-114 microbubbles (competitor) on HAEC, static

NP-1/Fc (Neuropilin-1/Fc, R&D Systems), sequence (Q9QWJ9 22-855): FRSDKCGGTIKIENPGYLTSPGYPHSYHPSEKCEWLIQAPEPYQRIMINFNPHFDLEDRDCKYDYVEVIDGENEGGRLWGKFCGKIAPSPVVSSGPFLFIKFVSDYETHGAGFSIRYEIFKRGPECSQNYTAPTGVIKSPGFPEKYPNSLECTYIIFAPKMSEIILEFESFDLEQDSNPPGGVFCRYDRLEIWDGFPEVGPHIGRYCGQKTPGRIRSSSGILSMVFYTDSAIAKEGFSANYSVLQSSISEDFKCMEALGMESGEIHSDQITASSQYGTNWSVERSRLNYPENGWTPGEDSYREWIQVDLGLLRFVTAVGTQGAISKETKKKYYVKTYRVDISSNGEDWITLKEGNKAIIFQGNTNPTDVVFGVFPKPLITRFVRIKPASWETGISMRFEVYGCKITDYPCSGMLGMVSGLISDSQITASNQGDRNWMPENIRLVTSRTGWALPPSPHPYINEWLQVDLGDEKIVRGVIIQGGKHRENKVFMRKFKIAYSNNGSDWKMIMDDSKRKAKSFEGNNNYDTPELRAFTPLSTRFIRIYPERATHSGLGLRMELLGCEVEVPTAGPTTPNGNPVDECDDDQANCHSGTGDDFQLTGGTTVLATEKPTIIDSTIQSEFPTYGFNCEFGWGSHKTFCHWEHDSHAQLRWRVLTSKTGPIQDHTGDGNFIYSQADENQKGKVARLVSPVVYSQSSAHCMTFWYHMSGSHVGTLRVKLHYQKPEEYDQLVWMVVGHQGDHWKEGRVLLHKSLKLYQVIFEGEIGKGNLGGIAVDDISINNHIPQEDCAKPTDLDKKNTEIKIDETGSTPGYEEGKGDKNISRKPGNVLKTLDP

B1: Cyclic disulfide CTKPPRC (BRU-306) (peptide)
peptide: CTKPPRC
modifications: disulfide 1-7 (inferred)
With B1 as the binder, how does the Bubbles Bound % (of control binding) [1] read?
The Bubbles Bound % (of control binding) was 97 % of control.

And the Bubbles Bound % (of control binding) [2]?
The Bubbles Bound % (of control binding) was 71 % of control.

And the Bubbles Bound % (of control binding) [3]?
The Bubbles Bound % (of control binding) was 99 % of control.

B2: GRGDSP-conjugated fluorescent beads (peptide)
peptide: GRGDSP
modifications: also: coupled by EDAC to carboxylate-modified fluorescent FluoSpheres beads
For B2, which Integrated density of bound beads (arbitrary units) [4] is on record?
The Integrated density of bound beads (arbitrary units) was 28.6.

B3: Linear CTKPPRC (BRU-305) (peptide)
peptide: CTKPPRC
Which Bubbles Bound % (of control binding) [5] does the source give for B3 here?
Its Bubbles Bound % (of control binding) is 97 % of control.

And the Bubbles Bound % (of control binding) [6]?
Its Bubbles Bound % (of control binding) is 78 % of control.

And the Bubbles Bound % (of control binding) [7]?
The Bubbles Bound % (of control binding) was 88 % of control.

B4: TKPPR-conjugated fluorescent beads (peptide)
peptide: TKPPR
modifications: also: coupled by EDAC to carboxylate-modified fluorescent FluoSpheres beads, many copies per bead
Which beads bound at 1.53 dynes/cm^2 [8] does the source give for B4 here?
Its beads bound at 1.53 dynes/cm^2 is 86 beads.

And the Integrated density of bound beads (arbitrary units) [4]?
The Integrated density of bound beads (arbitrary units) was 230.

B5: DPPE-Glu-GTKPPR (BRU-114) in gas-filled microbubbles (peptide)
peptide: {DPPE′-Glutaryl}-GTKPPR-OH
modifications: also: built into phospholipid shell of gas-filled microbubbles
Which results are given for B5?
HAEC bubble binding [9]: 1120 bubbles; KB cell bubble binding [10]: 56 bubbles; Bubbles Bound [11]: 1640 bubbles; Bubbles Bound [12]: 2780 bubbles; Bubbles Bound [13]: 1860 bubbles; Bubbles Bound [14]: 7050 bubbles; HAEC bubbles bound [15]: 1420 bubbles; RAEC bubbles bound [16]: 751 bubbles; Bubbles Bound [17]: 555 bubbles; Bubbles Bound [18]: 726 bubbles; Bubbles Bound [19]: 1250 bubbles; % more bubbles bound than with the 1% composition [20]: 31%; Bubbles Bound % (of control binding) [21]: 100 % of control; Bubbles Bound [22]: 737 bubbles; Bubbles Bound [23]: 953 bubbles; Bubbles Bound [24]: 950 bubbles; Bubbles Bound [25]: 1520 bubbles; Bubbles Bound [26]: 1360 bubbles; Bubbles Bound [27]: 1020 bubbles; Bubbles Bound [28]: 1250 bubbles

B6: TKPPR tetramer BRU-326 (OG-(TKPPR)4) (peptide)
peptide: TKPPR-OH
modifications: not fully specified (N-terminus); printed as OG-(TKPPR)4; also: tetramer: four TKPPR arms on branched scaffold carrying one Oregon Green
With B6 as the binder, how does the IC50 [29] read?
The IC50 was 10 µM.

B7: Tuftsin (TKPR) (peptide)
peptide: TKPR
With B7 as the binder, how does the IC50 [30] read?
The IC50 was 280 µM.

And the Bubbles Bound in presence of competitor [31]?
The Bubbles Bound in presence of competitor was 1150 bubbles.

What about the Bubbles Bound in presence of competitor [32] of the same binder?
Its Bubbles Bound in presence of competitor is 976 bubbles.

What about the Bubbles Bound in presence of competitor [33] of the same binder?
Its Bubbles Bound in presence of competitor is 1170 bubbles.

What about the Bubbles Bound in presence of competitor [34] of the same binder?
Its Bubbles Bound in presence of competitor is 904 bubbles.

What about the Bubbles Bound in presence of competitor [35] of the same binder?
The Bubbles Bound in presence of competitor was 556 bubbles.
